From patent US12698494

T1: FRETS-VWF73 fluorogenic substrate, P04275
T1 chain: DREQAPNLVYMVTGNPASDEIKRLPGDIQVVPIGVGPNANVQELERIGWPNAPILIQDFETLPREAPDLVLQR


Assays:
[1] = molecular target: Von Willebrand Factor (VWF) multimers, P04275
[2] = molecular target: T1, FRETS-VWF73 fluorogenic substrate, …

Protein | Ability to process VWF multimers under denaturing conditions [1] | vortex assay: processing of VWF multimers under shear stress [1] | Activity level (% relative to wild type ADAMTS13) VWFFRETS73 (% relative to wild type ADAMTS13) [2]
ADAMTS13 variant NGLY3 plus L591A/R636A/L637A/L668A (protein) AAGGILHLELLVAVGPDVFQAHQEDTERYVLTNLNIGAELLRDPSLGAQFRVHLVKMVILTEPEGAPNITANLTSSLLSVCGWSQTINPEDDTDPGHADLVLYITRFDLELPDGNRQVRGVTQLGGACSPTWSCLITEDTGFDLGVTIAHEIGHSFGLEHDGAPGSGCGPSGHVMASDGAAPRAGLAWSPCSRRQLLSLLSAGRARCVWDPPRPQPGSAGHPPDAQPGLYYSANEQCRVAFGPKAVACTFAREHLDMCQALSCHTDPLDQSSCSRLLVPLLDGTECGVEKWCSKGRCRSLVELTPIAAVHGRWSSWGPRSPCSRSCGGGVVTRRRQCNNPRPAFGGRACVGADLQAEMCNTQACEKTQLEFMSQQCARTDGQPLRSSPGGASFYHWGAAVPHSQGDALCRHMCRAIGESFIMKRGDSFLDGTRCMPSGPREDGTLSLCVSGSCRTFGCDGRMDSQQVWDRCQVCGGDNSTCSPRKGSFTAGRAREYVTFLTVTPNLTSVYIANHRPAFTHLAVRIGGRYVVAGNMSISPNTTYPSLLEDGRVEYRVALTEDAAPRLEEIRIWGPLQEDADIQVYRRYGEEYGNATRPDITFTYFQPKPRQAWVWAAVRGPCSVSCGAGLRWVNYSCLDQARKELVETVQCQGSQQPPAWPEACVLEPCPPYWAVGDFGPCSASCGGGLRERPVRCVEAQGSLLKTLPPARCRAGAQQPAVALETCNPQPCPARWEVSEPSSCTSAGGAGLALENETCVPGADGLEAPVTEGPGSVDEKLPAPEPCVGMSCPPGWGHLDATSAGEKAPSPWGSIRTGAQAAHVWTPAAGSCSVSCGRGLMELRFLCMDSALRVPVQEELCGLASKPGSRREVCQAVPCPARWQYKLAACSVSCGRGVVRRILYCARAHGEDDGEEILLDTQCQGLPRPEPQEACSLEPCPPRWKVMSLGPCSASCGLGTARRSVACVQLDQGQDVEVDEAACAALVRPEASVPCLIADCTYRWHVGTWMECSVSCGDGIQRRRDTCLGPQAQAPVPADFCQHLPKPVTVRGCWAGPCVGQGTPSLVPHEEAAAPGRTTATPAGASLEWSQARGLLFSPAPQPRRLLPGPQENSVQSSACGRQHLEPTGTIDMRGPGQADCAVAIGRPLGEVVTLRVLESSLNCSAGDMLLLWGRLTWRKMCRKLLDMTFSSKTNTLVVRQRCGRPGGGVLLRYGSQLAPETFYRECDMQLFGPWGEIVSPSLSPATSNAGGCRLFINVAPHARIAIHALATNMGAGTEGANASYILIRDTHSLRTTAFHGQQVLYWESESSQAEMEFSEGFLKAQASLRGQYWTLQSWVPEMQDPQSWKGKEGT | ++ | Combinations of NGLY3 plus L591A/R636A/L637A/L668A and NGLY3 plus R568A/Y665A efficiently processed VWF multimers | 95
ADAMTS13 variant L591A/R636A/L637A/L668A (protein) AAGGILHLELLVAVGPDVFQAHQEDTERYVLTNLNIGAELLRDPSLGAQFRVHLVKMVILTEPEGAPNITANLTSSLLSVCGWSQTINPEDDTDPGHADLVLYITRFDLELPDGNRQVRGVTQLGGACSPTWSCLITEDTGFDLGVTIAHEIGHSFGLEHDGAPGSGCGPSGHVMASDGAAPRAGLAWSPCSRRQLLSLLSAGRARCVWDPPRPQPGSAGHPPDAQPGLYYSANEQCRVAFGPKAVACTFAREHLDMCQALSCHTDPLDQSSCSRLLVPLLDGTECGVEKWCSKGRCRSLVELTPIAAVHGRWSSWGPRSPCSRSCGGGVVTRRRQCNNPRPAFGGRACVGADLQAEMCNTQACEKTQLEFMSQQCARTDGQPLRSSPGGASFYHWGAAVPHSQGDALCRHMCRAIGESFIMKRGDSFLDGTRCMPSGPREDGTLSLCVSGSCRTFGCDGRMDSQQVWDRCQVCGGDNSTCSPRKGSFTAGRAREYVTFLTVTPNLTSVYIANHRPAFTHLAVRIGGRYVVAGKMSISPNTTYPSLLEDGRVEYRVALTEDAAPRLEEIRIWGPLQEDADIQVYRRYGEEYGNATRPDITFTYFQPKPRQAWVWAAVRGPCSVSCGAGLRWVNYSCLDQARKELVETVQCQGSQQPPAWPEACVLEPCPPYWAVGDFGPCSASCGGGLRERPVRCVEAQGSLLKTLPPARCRAGAQQPAVALETCNPQPCPARWEVSEPSSCTSAGGAGLALENETCVPGADGLEAPVTEGPGSVDEKLPAPEPCVGMSCPPGWGHLDATSAGEKAPSPWGSIRTGAQAAHVWTPAAGSCSVSCGRGLMELRFLCMDSALRVPVQEELCGLASKPGSRREVCQAVPCPARWQYKLAACSVSCGRGVVRRILYCARAHGEDDGEEILLDTQCQGLPRPEPQEACSLEPCPPRWKVMSLGPCSASCGLGTARRSVACVQLDQGQDVEVDEAACAALVRPEASVPCLIADCTYRWHVGTWMECSVSCGDGIQRRRDTCLGPQAQAPVPADFCQHLPKPVTVRGCWAGPCVGQGTPSLVPHEEAAAPGRTTATPAGASLEWSQARGLLFSPAPQPRRLLPGPQENSVQSSACGRQHLEPTGTIDMRGPGQADCAVAIGRPLGEVVTLRVLESSLNCSAGDMLLLWGRLTWRKMCRKLLDMTFSSKTNTLVVRQRCGRPGGGVLLRYGSQLAPETFYRECDMQLFGPWGEIVSPSLSPATSNAGGCRLFINVAPHARIAIHALATNMGAGTEGANASYILIRDTHSLRTTAFHGQQVLYWESESSQAEMEFSEGFLKAQASLRGQYWTLQSWVPEMQDPQSWKGKEGT | ++ | the proteolytic activity of R568A/Y665A and the L591A/R636A/L637A/L668A variants were reduced when compared to wild type ADAMTS13 | 90
ADAMTS13 variant R568A/Y665A (protein) AAGGILHLELLVAVGPDVFQAHQEDTERYVLTNLNIGAELLRDPSLGAQFRVHLVKMVILTEPEGAPNITANLTSSLLSVCGWSQTINPEDDTDPGHADLVLYITRFDLELPDGNRQVRGVTQLGGACSPTWSCLITEDTGFDLGVTIAHEIGHSFGLEHDGAPGSGCGPSGHVMASDGAAPRAGLAWSPCSRRQLLSLLSAGRARCVWDPPRPQPGSAGHPPDAQPGLYYSANEQCRVAFGPKAVACTFAREHLDMCQALSCHTDPLDQSSCSRLLVPLLDGTECGVEKWCSKGRCRSLVELTPIAAVHGRWSSWGPRSPCSRSCGGGVVTRRRQCNNPRPAFGGRACVGADLQAEMCNTQACEKTQLEFMSQQCARTDGQPLRSSPGGASFYHWGAAVPHSQGDALCRHMCRAIGESFIMKRGDSFLDGTRCMPSGPREDGTLSLCVSGSCRTFGCDGRMDSQQVWDRCQVCGGDNSTCSPRKGSFTAGRAAEYVTFLTVTPNLTSVYIANHRPLFTHLAVRIGGRYVVAGKMSISPNTTYPSLLEDGRVEYRVALTEDRLPRLEEIRIWGPLQEDADIQVYRRYGEEAGNLTRPDITFTYFQPKPRQAWVWAAVRGPCSVSCGAGLRWVNYSCLDQARKELVETVQCQGSQQPPAWPEACVLEPCPPYWAVGDFGPCSASCGGGLRERPVRCVEAQGSLLKTLPPARCRAGAQQPAVALETCNPQPCPARWEVSEPSSCTSAGGAGLALENETCVPGADGLEAPVTEGPGSVDEKLPAPEPCVGMSCPPGWGHLDATSAGEKAPSPWGSIRTGAQAAHVWTPAAGSCSVSCGRGLMELRFLCMDSALRVPVQEELCGLASKPGSRREVCQAVPCPARWQYKLAACSVSCGRGVVRRILYCARAHGEDDGEEILLDTQCQGLPRPEPQEACSLEPCPPRWKVMSLGPCSASCGLGTARRSVACVQLDQGQDVEVDEAACAALVRPEASVPCLIADCTYRWHVGTWMECSVSCGDGIQRRRDTCLGPQAQAPVPADFCQHLPKPVTVRGCWAGPCVGQGTPSLVPHEEAAAPGRTTATPAGASLEWSQARGLLFSPAPQPRRLLPGPQENSVQSSACGRQHLEPTGTIDMRGPGQADCAVAIGRPLGEVVTLRVLESSLNCSAGDMLLLWGRLTWRKMCRKLLDMTFSSKTNTLVVRQRCGRPGGGVLLRYGSQLAPETFYRECDMQLFGPWGEIVSPSLSPATSNAGGCRLFINVAPHARIAIHALATNMGAGTEGANASYILIRDTHSLRTTAFHGQQVLYWESESSQAEMEFSEGFLKAQASLRGQYWTLQSWVPEMQDPQSWKGKEGT | ++ | the proteolytic activity of R568A/Y665A and the L591A/R636A/L637A/L668A variants were reduced when compared to wild type ADAMTS13 | 120
ADAMTS13 variant NGLY3 + R568A/Y665A (protein) AAGGILHLELLVAVGPDVFQAHQEDTERYVLTNLNIGAELLRDPSLGAQFRVHLVKMVILTEPEGAPNITANLTSSLLSVCGWSQTINPEDDTDPGHADLVLYITRFDLELPDGNRQVRGVTQLGGACSPTWSCLITEDTGFDLGVTIAHEIGHSFGLEHDGAPGSGCGPSGHVMASDGAAPRAGLAWSPCSRRQLLSLLSAGRARCVWDPPRPQPGSAGHPPDAQPGLYYSANEQCRVAFGPKAVACTFAREHLDMCQALSCHTDPLDQSSCSRLLVPLLDGTECGVEKWCSKGRCRSLVELTPIAAVHGRWSSWGPRSPCSRSCGGGVVTRRRQCNNPRPAFGGRACVGADLQAEMCNTQACEKTQLEFMSQQCARTDGQPLRSSPGGASFYHWGAAVPHSQGDALCRHMCRAIGESFIMKRGDSFLDGTRCMPSGPREDGTLSLCVSGSCRTFGCDGRMDSQQVWDRCQVCGGDNSTCSPRKGSFTAGRAAEYVTFLTVTPNLTSVYIANHRPLFTHLAVRIGGRYVVAGNMSISPNTTYPSLLEDGRVEYRVALTEDRLPRLEEIRIWGPLQEDADIQVYRRYGEEAGNLTRPDITFTYFQPKPRQAWVWAAVRGPCSVSCGAGLRWVNYSCLDQARKELVETVQCQGSQQPPAWPEACVLEPCPPYWAVGDFGPCSASCGGGLRERPVRCVEAQGSLLKTLPPARCRAGAQQPAVALETCNPQPCPARWEVSEPSSCTSAGGAGLALENETCVPGADGLEAPVTEGPGSVDEKLPAPEPCVGMSCPPGWGHLDATSAGEKAPSPWGSIRTGAQAAHVWTPAAGSCSVSCGRGLMELRFLCMDSALRVPVQEELCGLASKPGSRREVCQAVPCPARWQYKLAACSVSCGRGVVRRILYCARAHGEDDGEEILLDTQCQGLPRPEPQEACSLEPCPPRWKVMSLGPCSASCGLGTARRSVACVQLDQGQDVEVDEAACAALVRPEASVPCLIADCTYRWHVGTWMECSVSCGDGIQRRRDTCLGPQAQAPVPADFCQHLPKPVTVRGCWAGPCVGQGTPSLVPHEEAAAPGRTTATPAGASLEWSQARGLLFSPAPQPRRLLPGPQENSVQSSACGRQHLEPTGTIDMRGPGQADCAVAIGRPLGEVVTLRVLESSLNCSAGDMLLLWGRLTWRKMCRKLLDMTFSSKTNTLVVRQRCGRPGGGVLLRYGSQLAPETFYRECDMQLFGPWGEIVSPSLSPATSNAGGCRLFINVAPHARIAIHALATNMGAGTEGANASYILIRDTHSLRTTAFHGQQVLYWESESSQAEMEFSEGFLKAQASLRGQYWTLQSWVPEMQDPQSWKGKEGT | ++ | Combinations of NGLY3 plus L591A/R636A/L637A/L668A and NGLY3 plus R568A/Y665A efficiently processed VWF multimers | 120
